According to the supplement of paper PMC7877785:
± gives the uncertainty stated by the source.

Assay: self-splicing fitness, log relative to wild type (ln ratio); higher = more splicing; Tetrahymena group I intron in knt gene, E. coli kanamycin selection, DiMSum; sequences stand for … in CUCUCU…GGAGGGAAAAGUUAUCAGGCAUGCACCUGGUAGCUAGUCUUUAAACCAAUAGAUUGCAUCGGUUUAAAAGGCAAGACCGUCAAAUUGCGGGAAAGGGGUCAACAGCCGUUCAGUACCAAGUCUCAGGGGAAACUUUGAGAUGGCCUUGCAAAGGGUAUGGUAAUAAGCUGACGGACAUGGUCCUAACCACGCAGCCAAGUCCUAAGUCAACAGAUCUUCUGUUGAUAUGGAUGCAGUUCACAGACUAAAUGUCGGUCGGGGAAGAUGUAUUCUUCUCAUAAGAUAUAGUCGGACCUCUCCUUAAUGGGAGCUAGCGGAUGAAGUGAUGCAACACUGGAGCCGCUGGGAACUAAUUUGUAUGCGAAAGUAUAUUGAUUAGUUUUGGAGUACUCGUGGUCG
In short: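 A randomised library covering all eight P1ex-region intron nucleotides was built with the intron in the knt kanamycin-resistance gene on pET-22b(+) and held in E. coli BL21(DE3). Cells were grown overnight at 37°C or 30°C on LB agar, with or without 25 μg/mL kanamycin, plus 100 μg/mL carbenicillin, 50 μM IPTG and 0.2% rhamnose, and pooled colonies were amplicon-sequenced on an Illumina HiSeq 2500. DiMSum fitness is the error-weighted combination of wild-type-normalised replicate fold changes, kanamycin versus none.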

Sequence	self-splicing fitness (ln) (30 °C)	self-splicing fitness (ln) (37 °C)
ACGGAGCAAUAUUACGGAUU	-3.94 ± 0.31	-0.896 ± 0.16
ACGGAGCAAUAUUACGGGCG	-2.12 ± 0.19	-0.224 ± 0.19
ACGGAGCAAUAUUACGGUAC	-4.95 ± 0.36	-2.3 ± 0.22
ACGGAGCAAUAUUACGGUCG	-2.48 ± 0.11	-0.856 ± 0.11
ACGGAGCAAUAUUACGGUGG	-3.07 ± 0.18	-2.22 ± 0.26
ACGGAGCAAUAUUACGGUUC	-4.29 ± 0.37	-1.32 ± 0.22
ACGGAGCAAUAUUACGUAAU	-3.61 ± 0.41	-2.39 ± 0.48
ACGGAGCAAUAUUACGUGAA	-2.95 ± 0.15	-2.35 ± 0.19
ACGGAGCAAUAUUACGUGGG	-3.99 ± 0.18	-2.29 ± 0.15
ACGGAGCAAUAUUACGUGUC	-4.54 ± 0.46	-1.8 ± 0.18
ACGUAGCAAUAUUACGAAGC	–	-1.96 ± 0.41
ACGUAGCAAUAUUACGAAUA	-2.32 ± 0.17	-1.46 ± 0.12
ACGUAGCAAUAUUACGAGAA	-2.37 ± 0.26	-3.02 ± 0.33
ACGUAGCAAUAUUACGAGCU	-1.36 ± 0.12	-1.06 ± 0.14
ACGUAGCAAUAUUACGAUAC	-2.62 ± 0.12	-2.26 ± 0.19
ACGUAGCAAUAUUACGAUUG	-2.78 ± 0.11	-1.99 ± 0.12
ACGUAGCAAUAUUACGCAAA	-1.78 ± 0.21	-2.42 ± 0.3
ACGUAGCAAUAUUACGCAAU	-2.95 ± 0.17	-1.53 ± 0.22
ACGUAGCAAUAUUACGCAUG	-2.97 ± 0.15	-0.981 ± 0.11
ACGUAGCAAUAUUACGCAUU	-2.8 ± 0.17	-0.657 ± 0.11
ACGUAGCAAUAUUACGCCGC	-3.7 ± 0.46	–
ACGUAGCAAUAUUACGCGAU	-3.01 ± 0.14	-1.5 ± 0.11
ACGUAGCAAUAUUACGCGGA	-2.05 ± 0.18	-0.895 ± 0.11
ACGUAGCAAUAUUACGCGUA	-2.22 ± 0.17	-1.74 ± 0.16

Sequence	self-splicing fitness (ln) (30 °C)	self-splicing fitness (ln) (37 °C)
ACGUAGCAAUAUUACGCUUU	-1.92 ± 0.058	-1.11 ± 0.075
ACGUAGCAAUAUUACGGAAC	-2.09 ± 0.24	-2.14 ± 0.26
ACGUAGCAAUAUUACGGAUU	-2.5 ± 0.14	-1.8 ± 0.2
ACGUAGCAAUAUUACGGCCG	-0.0843 ± 0.13	-0.11 ± 0.19
ACGUAGCAAUAUUACGGGAC	-4.43 ± 0.3	-1.45 ± 0.16
ACGUAGCAAUAUUACGGUAU	-2.02 ± 0.11	-1.56 ± 0.12
ACGUAGCAAUAUUACGGUGA	-2.3 ± 0.2	-0.727 ± 0.15
ACGUAGCAAUAUUACGUAUG	-2.75 ± 0.18	-3.33 ± 0.42
ACGUAGCAAUAUUACGUCGA	-3.67 ± 0.3	-2.72 ± 0.24
ACGUAGCAAUAUUACGUCUC	-2.84 ± 0.19	-3.13 ± 0.32
ACGUAGCAAUAUUACGUGCU	-1.94 ± 0.11	-0.828 ± 0.12
ACUAAGCAAUAUUACGAAAC	-3.55 ± 0.12	-2.3 ± 0.16
ACUAAGCAAUAUUACGACUG	-0.95 ± 0.065	-0.652 ± 0.089
ACUAAGCAAUAUUACGAGCC	-3.72 ± 0.4	-1.62 ± 0.33
ACUAAGCAAUAUUACGAUCA	-1.15 ± 0.072	-0.58 ± 0.073
ACUAAGCAAUAUUACGAUUU	-0.208 ± 0.062	-0.0751 ± 0.09
ACUAAGCAAUAUUACGCACC	-0.776 ± 0.12	-0.198 ± 0.13
ACUAAGCAAUAUUACGCAUU	-1.82 ± 0.11	-0.321 ± 0.12
ACUAAGCAAUAUUACGCCAU	–	-2.01 ± 0.29
ACUAAGCAAUAUUACGCCCG	-0.735 ± 0.14	0.678 ± 0.19
ACUAAGCAAUAUUACGCCGG	-1.03 ± 0.11	-0.877 ± 0.18
ACUAAGCAAUAUUACGCGGA	-1.96 ± 0.094	-0.956 ± 0.083
ACUAAGCAAUAUUACGCUCA	-0.894 ± 0.12	-0.989 ± 0.14
ACUAAGCAAUAUUACGCUCC	-1.24 ± 0.096	-0.322 ± 0.13

Sequence	self-splicing fitness (ln) (30 °C)	self-splicing fitness (ln) (37 °C)
ACUAAGCAAUAUUACGGAGU	-3.72 ± 0.23	-3.11 ± 0.21
ACUAAGCAAUAUUACGGCCA	-0.942 ± 0.13	0.00289 ± 0.13
ACUAAGCAAUAUUACGGUUG	-3.25 ± 0.2	-2.5 ± 0.21
ACUAAGCAAUAUUACGUACU	0.135 ± 0.084	0.635 ± 0.12
ACUAAGCAAUAUUACGUAUC	-2.91 ± 0.15	-2.15 ± 0.19
ACUAAGCAAUAUUACGUCAU	-3.64 ± 0.16	-2.28 ± 0.15
ACUAAGCAAUAUUACGUCUA	-1.45 ± 0.13	-0.981 ± 0.12
ACUAAGCAAUAUUACGUUUA	-3.27 ± 0.17	-2.48 ± 0.14
ACUAAGCAAUAUUACGUUUG	-3.62 ± 0.18	-2.22 ± 0.17
ACUCAGCAAUAUUACGAAUU	-0.96 ± 0.089	-0.208 ± 0.085
ACUCAGCAAUAUUACGACAC	-1.44 ± 0.12	-0.127 ± 0.14
ACUCAGCAAUAUUACGAGAU	-2.56 ± 0.11	-1.81 ± 0.11
ACUCAGCAAUAUUACGAGGG	-1.85 ± 0.08	-1.41 ± 0.1
ACUCAGCAAUAUUACGAUAU	-1.1 ± 0.081	-0.759 ± 0.11
ACUCAGCAAUAUUACGCCUU	-0.619 ± 0.053	0.491 ± 0.067
ACUCAGCAAUAUUACGCGAA	-1.48 ± 0.061	-0.686 ± 0.069
ACUCAGCAAUAUUACGCGCG	-1.21 ± 0.12	-0.47 ± 0.11
ACUCAGCAAUAUUACGCGUA	-0.747 ± 0.11	-0.395 ± 0.11
ACUCAGCAAUAUUACGCGUC	-3.42 ± 0.19	-2.06 ± 0.25
ACUCAGCAAUAUUACGCUAC	-3.42 ± 0.27	-2.63 ± 0.23
ACUCAGCAAUAUUACGCUAU	-1.9 ± 0.061	-0.569 ± 0.07
ACUCAGCAAUAUUACGCUCC	-0.601 ± 0.12	-0.848 ± 0.16
ACUCAGCAAUAUUACGGAGA	-0.941 ± 0.12	-0.997 ± 0.13
ACUCAGCAAUAUUACGGAUU	-0.597 ± 0.055	0.0271 ± 0.076

Sequence	self-splicing fitness (ln) (30 °C)	self-splicing fitness (ln) (37 °C)
ACUCAGCAAUAUUACGGGAC	-2.72 ± 0.17	-1.6 ± 0.23
ACUCAGCAAUAUUACGGGAU	-1.32 ± 0.056	-0.522 ± 0.076
ACUCAGCAAUAUUACGGGCC	-1.32 ± 0.092	-1.13 ± 0.11
ACUCAGCAAUAUUACGGGUA	-1.57 ± 0.099	-0.922 ± 0.083
ACUCAGCAAUAUUACGGUUC	-2.68 ± 0.14	-2.33 ± 0.14
ACUCAGCAAUAUUACGGUUU	-0.62 ± 0.048	-0.291 ± 0.057
ACUCAGCAAUAUUACGUAAG	-0.973 ± 0.052	-0.421 ± 0.078
ACUCAGCAAUAUUACGUAAU	-0.934 ± 0.057	-0.31 ± 0.076
ACUCAGCAAUAUUACGUACC	-1.39 ± 0.09	0.482 ± 0.13
ACUCAGCAAUAUUACGUAUG	-3.11 ± 0.24	-1.35 ± 0.16
ACUCAGCAAUAUUACGUCCC	-0.969 ± 0.13	-0.71 ± 0.16
ACUCAGCAAUAUUACGUCCG	-2.16 ± 0.14	-1.21 ± 0.15
ACUCAGCAAUAUUACGUGAU	-1 ± 0.064	-0.627 ± 0.078
ACUCAGCAAUAUUACGUGCG	-0.485 ± 0.063	-0.526 ± 0.078
ACUCAGCAAUAUUACGUUAG	-2.98 ± 0.13	-0.675 ± 0.11
ACUGAGCAAUAUUACGAAGU	-3.93 ± 0.3	-3.03 ± 0.31
ACUGAGCAAUAUUACGAGGA	-2.63 ± 0.23	-1.83 ± 0.17
ACUGAGCAAUAUUACGAUCA	-2.89 ± 0.43	-2.9 ± 0.34
ACUGAGCAAUAUUACGAUCG	-1.65 ± 0.15	-1.99 ± 0.21
ACUGAGCAAUAUUACGAUCU	-1.28 ± 0.12	-0.653 ± 0.1
ACUGAGCAAUAUUACGAUUG	–	-3.25 ± 0.37
ACUGAGCAAUAUUACGCAAU	-2.79 ± 0.28	-2.03 ± 0.27
ACUGAGCAAUAUUACGCAUC	-2.22 ± 0.24	-2.08 ± 0.24
ACUGAGCAAUAUUACGCCCG	-2.15 ± 0.25	-0.509 ± 0.22
